The source of these data is publication PMC6529637.

In this test the target is BamA (E. coli (endogenous in MC4100-derived strains)), P0A940. Briefly: cross-linking; in vivo formaldehyde cross-linking (0.7%, 12 min, room temperature, cells in PBS pH 7.6), SDS-PAGE and immunoblot with anti-RcsF and anti-BamA; strains grown in glucose minimal medium at 30°C; backgrounds: WT, ΔbamE, bamA101, bamB::Kan, bamD(R197L), bamD(L13P), bamA(F494L) and combinations. Particulars: remark: other sources report otherwise.

B1: regulator of capsule synthesis protein F (RcsF), P69411 16-134 (natural protein)
chain: CSMLSRSPVEPVQSTAPQPKAEPAKPKAPRATPVRIYTNAEELVGKPFRDLGEVSGDSCQASNQDSPPSIPTARKRMQINASKMKANAVLLHSCEVTSGTPGCYRQAVCIGSALNITAK
modifications: here or on the partner: lipid moiety on the N-terminal domain (lipoprotein)
On to B1, for which the fraction of BamA cross-linked to RcsF (ΔbamE strain) worked out at 30%.
